Experimental data from the RNAGym collection of RNA variant scans (doi:10.1021/acssynbio.7b00057).

B1: Pistol ribozyme (parent)
chain: GGGUCGUUGUUCCAUAAUCGCGUGGAUAUGGCACGCAAGUUUCUACCGGGCACCGUAAAUGUCCGACUGGAGCCGUUCGGGCGGCUAUAAACAGACCUCAGGCCCGAAGCGUGGCGGCACCUGCCGCCGGUGGUAAAAAAGAUCGGAAGAGCACACGUCU

Variants of: B1
Assay: aptazyme ON/OFF ratio, guanine; higher = stronger switching; co-transcriptional cleavage with and without guanine
With G9A U10A U11G C13G the “aptazyme ON/OFF ratio” value was 1.11. For G9A U10A U11G C13A, the “aptazyme ON/OFF ratio” value was 1.34. For G9A U10A U11G C13U, the “aptazyme ON/OFF ratio” value was 1.51. With G9A U10G U11C C12G the “aptazyme ON/OFF ratio” value was 1.33. In the case of G9A U10G U11C C12U, the “aptazyme ON/OFF ratio” value is reported as 1.08. With G9A U10G U11C C12A the “aptazyme ON/OFF ratio” value was 1.53. In the case of G9A U11C C12A C13U, the “aptazyme ON/OFF ratio” value is reported as 1.23. For G9A U11C C12A C13A, the “aptazyme ON/OFF ratio” value was 1.06. In the case of G9A U11C C12A C13G, the “aptazyme ON/OFF ratio” value is reported as 1.35. In the case of G9A U11A C12U, the “aptazyme ON/OFF ratio” value is reported as 1.83. In the case of G9A U11A C12A, the “aptazyme ON/OFF ratio” value is reported as 1.68. In the case of G9A U11A C12G, the “aptazyme ON/OFF ratio” value is reported as 1.51. With G9A U10G U11A C12U C13A the “aptazyme ON/OFF ratio” value was 1.21. For G9A U10G U11A C12U C13G, the “aptazyme ON/OFF ratio” value was 1.2. In the case of G9A U10G U11A C12U C13U, the “aptazyme ON/OFF ratio” value is reported as 1.24. In the case of G9A U10G U11C C12G C13U, the “aptazyme ON/OFF ratio” value is reported as 1.24. For G9A U10G U11C C12G C13A, the “aptazyme ON/OFF ratio” value was 1.11. With G9A U10G U11C C12G C13G the “aptazyme ON/OFF ratio” value was 1.27. In the case of G9A U10G U11A C12A C13G, the “aptazyme ON/OFF ratio” value is reported as 1.09. In the case of G9A U10G U11A C12A C13A, the “aptazyme ON/OFF ratio” value is reported as 1.08. With G9A U10G U11A C12A C13U the “aptazyme ON/OFF ratio” value was 1.1. For G9A U10C U11A C13G, the “aptazyme ON/OFF ratio” value was 1.14. In the case of G9A U10C U11A C13A, the “aptazyme ON/OFF ratio” value is reported as 1.41. With G9A U10C U11A C13U the “aptazyme ON/OFF ratio” value was 1.3. In the case of G9A U10G U11G C13U, the “aptazyme ON/OFF ratio” value is reported as 1.12. For G9A U10G U11G C13A, the “aptazyme ON/OFF ratio” value was 1.2. With G9A U10G U11G C13G the “aptazyme ON/OFF ratio” value was 1.14. For G9A U10C C12G C13U, the “aptazyme ON/OFF ratio” value was 1.31. In the case of G9A U10C C12G C13G, the “aptazyme ON/OFF ratio” value is reported as 1.23. In the case of G9A U10C C12G C13A, the “aptazyme ON/OFF ratio” value is reported as 1.23. For G9A U11G C12A C13G, the “aptazyme ON/OFF ratio” value was 1.31. In the case of G9A U11G C12A C13A, the “aptazyme ON/OFF ratio” value is reported as 1.18. In the case of G9A U10C U11C C12G C13G, the “aptazyme ON/OFF ratio” value is reported as 1.2. With G9A U10C U11C C12G C13A the “aptazyme ON/OFF ratio” value was 1.16. For G9A U10C U11C C12G C13U, the “aptazyme ON/OFF ratio” value was 1.14. For G9A U10G C13A, the “aptazyme ON/OFF ratio” value was 1.3. In the case of G9A U10G C13G, the “aptazyme ON/OFF ratio” value is reported as 1.15. With G9A U10G C13U the “aptazyme ON/OFF ratio” value was 1.52. For G9A U10G U11A C12G C13A, the “aptazyme ON/OFF ratio” value was 1.02. In the case of G9A U10G U11A C12G C13U, the “aptazyme ON/OFF ratio” value is reported as 1.53. For G9A U10G U11A C12G C13G, the “aptazyme ON/OFF ratio” value was 1.45. In the case of G9A U10G C12A C13A, the “aptazyme ON/OFF ratio” value is reported as 1.29. In the case of G9A U10G C12A C13U, the “aptazyme ON/OFF ratio” value is reported as 1.69. With G9A U10G C12A C13G the “aptazyme ON/OFF ratio” value was 1.14. With G9A U10C U11C C12A C13U the “aptazyme ON/OFF ratio” value was 1.3. In the case of G9A U10C U11C C12A C13G, the “aptazyme ON/OFF ratio” value is reported as 1.18. For G9A U10C U11C C12A C13A, the “aptazyme ON/OFF ratio” value was 1.12. For G9A U10C U11A C12A, the “aptazyme ON/OFF ratio” value was 1.67. In the case of G9A U10C U11A C12U, the “aptazyme ON/OFF ratio” value is reported as 1.78. For G9A U10C U11A C12G, the “aptazyme ON/OFF ratio” value was 1.48. With G9A U11A C13A the “aptazyme ON/OFF ratio” value was 1.23. For G9A U11A C13G, the “aptazyme ON/OFF ratio” value was 1.1. For G9A U11A C13U, the “aptazyme ON/OFF ratio” value was 1.34. For G9A U10G C12G, the “aptazyme ON/OFF ratio” value was 1.24. In the case of G9A U10G C12U, the “aptazyme ON/OFF ratio” value is reported as 1.82. With G9A U10G C12A the “aptazyme ON/OFF ratio” value was 1.53. For G9A U10C U11G C12U, the “aptazyme ON/OFF ratio” value was 1.52. In the case of G9A U10C U11G C12G, the “aptazyme ON/OFF ratio” value is reported as 1.18. With G9A U10C U11G C12A the “aptazyme ON/OFF ratio” value was 1.03. With G9A U10C U11G C12G C13U the “aptazyme ON/OFF ratio” value was 1.1. With G9A U10C U11G C12G C13G the “aptazyme ON/OFF ratio” value was 1.12. For G9A U10C U11G C12G C13A, the “aptazyme ON/OFF ratio” value was 1.17. For G9A U10C U11C C12U C13A, the “aptazyme ON/OFF ratio” value was 1.03. With G9A U10C U11C C12U C13G the “aptazyme ON/OFF ratio” value was 1.04. With G9A U10C U11C C12U C13U the “aptazyme ON/OFF ratio” value was 1.06. For G9A U10G U11A C12U, the “aptazyme ON/OFF ratio” value was 1.04. For G9A U10G U11A C12A, the “aptazyme ON/OFF ratio” value was 1.17. With G9A U10G U11A C12G the “aptazyme ON/OFF ratio” value was 1.33. With G9A U10C U11A C12A C13U the “aptazyme ON/OFF ratio” value was 1.63. In the case of G9A U10C U11A C12A C13G, the “aptazyme ON/OFF ratio” value is reported as 1.42. For G9A U10C U11A C12A C13A, the “aptazyme ON/OFF ratio” value was 1.28. With G9A U10C U11G C13U the “aptazyme ON/OFF ratio” value was 1.39. In the case of G9A U10C U11G C13A, the “aptazyme ON/OFF ratio” value is reported as 1.39. For G9A U10C U11G C13G, the “aptazyme ON/OFF ratio” value was 1.18. For G9A U10G U11C C12A C13G, the “aptazyme ON/OFF ratio” value was 1.15. In the case of G9A U10G U11C C12A C13U, the “aptazyme ON/OFF ratio” value is reported as 1.25. In the case of G9A U10G U11C C12A C13A, the “aptazyme ON/OFF ratio” value is reported as 1.18. For G9A U10C C12U C13G, the “aptazyme ON/OFF ratio” value was 1.27. For G9A U10C C12U C13U, the “aptazyme ON/OFF ratio” value was 1.34. With G9A U10C C12U C13A the “aptazyme ON/OFF ratio” value was 1.38. In the case of G9A U10G U11G C12U C13A, the “aptazyme ON/OFF ratio” value is reported as 1.08. For G9A U10G U11G C12U C13U, the “aptazyme ON/OFF ratio” value was 1.55. With G9A U10G U11G C12U C13G the “aptazyme ON/OFF ratio” value was 1.19.
